The text below walks through data of patent US20120093808A1 (SHIONOGI, published 2012).

Test [1] deals with T1, recombinant full-length PcrV protein (1-294) of Pseudomonas aeruginosa (Pseudomonas aeruginosa, in the biotin-labeled form: PEO-maleimide biotin on the cysteine inserted between histidine tag and start codon).
T1 construct: also called PcrV antigen; recombinant PcrV; not shown: N-terminal histidine tag encoded by the expression vector (pWE30 [sic] / pQE30)
Put plainly: surface plasmon resonance analysis, PcrV antigen. A general note: Surface plasmon resonance follows binding to a sensor surface in real time, without labels.

Test [2] deals with T1, recombinant full-length PcrV protein …. Put plainly: SPR, BIAcore T-100, culture supernatant, recombinant PcrV (FIG. 13).
The target is the same in test [3]. In words: surface plasmon resonance analysis (BIAcore T-100), culture supernatant, recombinant PcrV.
The target is the same in test [4]. In words: SPR, BIAcore T100, antibody captured by anti-mouse antibody on CM5 chip, recombinant PcrV as analyte.
The target in a further test is T2, truncated PcrV (136-233) (Pseudomonas aeruginosa).
T2 construct: also called truncated PcrV protein
In words: Western blotting: purified recombinant truncated PcrV on SDS-PAGE/PVDF, antibody at 1 ug/mL, labeled anti-mouse IgG, ECL [panel Truncated PcrV (136-233]. (Immunoblotting shows a protein as a band on a membrane.)

Test [5] addresses T1, recombinant full-length PcrV protein …. Put plainly: surface plasmon resonance analysis, PcrV antigen. This is another data set of the same source.

B1: humanized monoclonal antibody h1F3 (antibody, V domains shown)
VH: QVQLVQSGAEVKKPGASVKVSCKASGYSFTSYWMHWVRQAPGQGLEWMGEINPSNGRTNYNEKFNTRVTMTRDTSTSTVYMELSSLRSEDTAVYYCVLYGNYVVYYTMDYWGQGT
VL: DIQLTQSPSFLSASVGDRVTITCSASTSVSYMEWYQQKPGKAPKLLIYTTSKLASGVPSRFSGSGSGTEFTLTISSLQPEDFATYYCHQWRNYPFTFGQGTKLEIKR
notes: also called humanized antibody; humanized PcrV antibody
A word on the Kd: it is the concentration at which binding is half-saturated. One may read the koff as the rate constant with which the complex falls apart. Broadly, the kon is the second-order rate constant of association. Regarding B1, in test [1], the dissociation constant Kd was 380 pM, the koff was 0.00033 s⁻¹ and the kon amounted to 870000 M⁻¹ s⁻¹.

B2: antibody including the heavy chain of the template humanized antibody and the light chain of the mutant humanized antibody (antibody, V domains shown)
VH: QVQLVQSGAEVKKPGASVKVSCKASGYSFTSYWMHWVRQAPGQGLEWMGEINPSNGRTNYNEKFNTRVTMTRDTSTSTVYMELSSLRSEDTAVYYCARYGNYVVYYTMDYWGQGTTVTVSS
VL: DIQLTQSPTFLSASVGDRVTITCSASTSVSYMEWYQQKPGKAPKILIYTTSKLASGVPSRFSGSGSGTEYTLTISSLQPEDFATYYCHQWRNYPFTFGQGTKLEIK
notes: Human IgG4Pro (S228P) and human Igkappa constant regions; tested as culture supernatant; also called HT/LB
With B2, in test [2], the Kd came to 650000 pM. For the same molecule, in test [3], the koff turned out to be 0.04 s⁻¹ and the kon stood at 62000 M⁻¹ s⁻¹.

B3: mouse monoclonal antibody 1F3 (antibody, V domains shown)
VH: QVQLQQPGAELVKPGASVKLSCKASGYSFTSYWMHWVKQRPGQGLEWIGEINPSNGRTNYNEKFNTKATLTVDTSSSTAYMQLSSLTSEDSAVYYCVLYGNYVVYYTMDYWGQGTSVTVSS
VL: QIVLTQSPTIMSASLGEEITLTCSASTSVSYMEWYQQKSGTSPKILIYTTSKLASGVPSRFSGSGSGTFYSLTISSVEAEDAADYYCHQWRNYPFTFGSGTKLEIK
notes: also called m1F3; mouse PcrV antibody
As for B3, the equilibrium dissociation constant (Kd) in test [4] is 370 pM. In the test with truncated PcrV (136-233), the binding result is recorded as “binds”.

B4: mouse-human chimeric 1F3 antibody (antibody, V domains shown)
VH: QVQLQQPGAELVKPGASVKLSCKASGYSFTSYWMHWVKQRPGQGLEWIGEINPSNGRTNYNEKFNTKATLTVDTSSSTAYMQLSSLTSEDSAVYYCVLYGNYVVYYTMDYWGQGTSVTVSS
VL: QIVLTQSPTIMSASLGEEITLTCSASTSVSYMEWYQQKSGTSPKILIYTTSKLASGVPSRFSGSGSGTFYSLTISSVEAEDAADYYCHQWRNYPFTFGSGTKLEIK
notes: Human IgG4Pro (S228P) heavy constant region and human Igkappa constant region; tested as culture supernatant; also called mouse-human chimeric antibody; mouse/human chimeric antibody
For the molecule B4, the equilibrium dissociation constant (Kd) in test [5] was found to be 270 pM; in test [1], 490 pM; in test [2] it was 260 pM. Also, the koff in test [5] is 0.00023 s⁻¹; in test [1], 0.00037 s⁻¹; in test [3], 0.00051 s⁻¹. The results for the kon in test [5], in test [1] and in test [3] were 850000 M⁻¹ s⁻¹, 740000 M⁻¹ s⁻¹ and 2e+06 M⁻¹ s⁻¹, respectively.
